Key:
[1] = target: T1, Recombinant Human PD-L1/CD274 Protein (hPD-L1-his) (human, UniProt Q9NZQ7 19-238); assay: ELISA, coated hPD-L1-his, acidic wash and incubation after binding at pH7.4
T1 construct: range 19-238; ACRO Biosystem PD1-H5229, made in HEK293; also called human PD-L1-his; hPD-L-his
Protocol: (§1) The pH-dependent binding affinity was further measured at various pH values, such as pH4, pH4.5, pH5.0, pH5.5, pH6.0, pH7.4. The measurement by ELISA was conducted similarly to the method described above. High-binding clear polystyrene 96 well plates were coated with 100 μl/well of a 0.5 μg/ml hPD-L1-his in high pH coating buffer and incubated overnight at 4° C. Then the coated plates were washed 3 times with shaking for 10s on an automatic plate washer with PBS+0.1% Tween 20 (Amresco). Then 200 μl of blocking buffer (1% BSA (Solarbio)+1% normal goat serum (Solarbio)+0.05% Tween 20 (Amresco)) was added to each well and the plates were then incubated for 2 hours at room temperature and washed 3 times as above. […] The plates were then washed once with 250 μl/well washing buffer at pH7.4, pH6.0, pH5.5, pH5.0, pH4.5 or pH4.0 and then 100 μl/well pH7.4 or pH5.5 washing buffer was added and the incubation was continued for 2 hours at RT with shaking. Afterwards, the plates was washed 3 times washing buffer at pH7.4 and 100 μl/well of a solution of HRP conjugated goat anti-hIgG HRP antibody (1:20000, Abcam) in pH7.4 dilution buffer was then added to each well of the plate. After that the plates were allowed to incubate for 60 min at room temperature followed by washing 3 times with 250 μl/well pH7.4 washing buffer. Finally, 100 μl/well of TMB was added to each well for 15 min and the reaction was terminated using 50 μl/well of 0.16M/L sulfuric acid. The plates were read on a Thermo Multiscan FC at 450 nm (see FIG. 23A-23F). The measurements were performed in triplicate.

[2] = target: T2, human PD-L1-Fc mutant E58A (human); assay: ELISA on captured PD-L1-Fc, as in Example 18A
T2 construct: Position 58 counts on native human PD-L1 (NP_054862.1); also called E58A mutant
T2 sequence (chain, as listed by the source E58A E58A limits assumed): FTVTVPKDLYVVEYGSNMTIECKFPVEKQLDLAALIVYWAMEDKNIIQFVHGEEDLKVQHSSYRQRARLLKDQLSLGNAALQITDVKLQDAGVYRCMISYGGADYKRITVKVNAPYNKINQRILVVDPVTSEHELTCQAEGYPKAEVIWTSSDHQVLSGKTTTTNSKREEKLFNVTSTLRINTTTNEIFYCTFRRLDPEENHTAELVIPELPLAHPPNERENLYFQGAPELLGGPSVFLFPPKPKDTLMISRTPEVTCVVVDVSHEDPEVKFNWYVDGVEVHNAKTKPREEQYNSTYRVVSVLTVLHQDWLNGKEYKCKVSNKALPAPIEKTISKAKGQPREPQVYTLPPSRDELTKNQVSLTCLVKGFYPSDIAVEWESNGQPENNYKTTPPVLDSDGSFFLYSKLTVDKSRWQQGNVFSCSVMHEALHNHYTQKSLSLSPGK

[3] = target: T3, wild type human PD-L1-Fc protein (SEQ ID NO: 107) (human); assay: ELISA on captured PD-L1-Fc, as in Example 18A
T3 construct: Extracellular human PD-L1 (amino acid 19-238) with Fc fragment of human IgG1, expressed in 293T cells and used as culture supernatant; also called WT PD-L1; wild-type PD-L1
T3 sequence (chain, as listed by the source limits assumed): as the sequence (chain, as listed by the source E58A E58A limits assumed) above, with A40E counted along it

[4] = target: T4, human PD-L1 expressed on cells (human, UniProt Q9NZQ7 19-290); assay: flow cytometry (relative mean fluorescence) on human peripheral blood cells activated 3 days with anti-CD3 and anti-CD28; detection with anti-human IgG-APC
T4 construct: whole, on cells; also called hPD-L1 expressed on HCC827; hPD-L1 on MC38/hPD-L1 cells
T4 sequence (Q9NZQ7 19-290): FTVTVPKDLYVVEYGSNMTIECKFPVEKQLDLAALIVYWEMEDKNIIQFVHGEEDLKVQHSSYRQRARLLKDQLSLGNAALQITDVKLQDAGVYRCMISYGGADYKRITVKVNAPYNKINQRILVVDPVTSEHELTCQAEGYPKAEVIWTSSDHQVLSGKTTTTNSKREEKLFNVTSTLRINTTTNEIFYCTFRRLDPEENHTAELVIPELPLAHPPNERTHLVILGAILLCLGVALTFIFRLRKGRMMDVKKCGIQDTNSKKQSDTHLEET

[5] = target: T1, Recombinant Human PD-L1/CD274 Protein …; assay: ELISA on coated hPD-L1-his; bound at pH7.4, then 2 h at pH5.5
Protocol: as §1, with “Finally, 100 μl/well of TMB was added to each well for 15 min and the reaction was terminated using 50 μl/well of 0.16M/L sulfuric acid.” left out, “The measurements were performed in triplicate.” left out

[6] = target: hPD-L1 (antigen of the Biacore assay) (human, UniProt Q9NZQ7 19-238, limits assumed); assay: SPR (Biacore), antibody captured on anti-human Fc, antigen in flow
Chain of hPD-L1 (antigen of the Biacore assay) (Q9NZQ7 19-238 limits assumed): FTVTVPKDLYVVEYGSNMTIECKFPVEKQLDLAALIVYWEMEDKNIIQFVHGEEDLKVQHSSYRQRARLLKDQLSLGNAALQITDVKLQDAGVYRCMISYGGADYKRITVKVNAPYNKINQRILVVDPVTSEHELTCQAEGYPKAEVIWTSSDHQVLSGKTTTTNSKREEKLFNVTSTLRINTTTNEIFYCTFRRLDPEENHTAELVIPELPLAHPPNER
Summary of the method: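 Antibody captured to 200–300 RU on an anti-human Fc CM5 surface, with an uncaptured flow cell as reference; antigen injected at varying concentrations, 180 s association, in HBS-EP pH 7.4. Regeneration with glycine pH 1.5 for 120 s; reference-subtracted signals evaluated.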

[7] = target: T5, Human PD-L1/CD274 with C-Fc Tag (hPD-L1-Fc) (human, UniProt Q9NZQ7 19-238); assay: blocking ELISA on coated hPD-L1-Fc; blocked ligand: biotinylated hPD-1-N297A
T5 construct: range 19-238; ACRO Biosystem PD1-H5258, made in HEK293; also called human PD-L1-Fc; not shown: Fc fragment of human IgG1 at C-terminus
T5 sequence (Q9NZQ7 19-238 limits assumed): as above

[8] = target: T1, Recombinant Human PD-L1/CD274 Protein …; assay: ELISA on coated hPD-L1-his; bound at pH7.4, then 2 h at pH7.4
Protocol: as §1

[9] = target: T4, human PD-L1 expressed on cells; assay: blocking FACS on HCC827 cells; blocked ligand: biotinylated hPD-1-N297A
Protocol: Log phase IFN-γ stimulated (500U/ml for 2 days) HCC827 cells were collected and resuspended in blocking buffer (5% BSA+PBS). 2×10\hat{ }5 cells were added to each tube and then washed once with PBS (1500 rpm, 5 mins, RT). […] After washing for three times with PBS, 100 μl/tube streptavidin-PE 1:200 in blocking buffer was added to each tube. The cells were incubated at 4° C. for 1 hr and then washed twice with PBS, followed by resuspending cells in 150 μl PBS for each sample. The cells were then transferred into FACS tube and the binding of the antibodies to the cells were detected with flow cytometry (ACEA Bioscience Novocyte) (see FIGS. 20A and 20B).

[10] = target: T1, Recombinant Human PD-L1/CD274 Protein …; assay: ELISA on coated hPD-L1-his
[11] = target: T1, Recombinant Human PD-L1/CD274 Protein …; assay: ELISA on coated hPD-L1-his; bound at pH7.4, then 2 h at pH7.4; remark: listed apart in the source
[12] = target: T1, Recombinant Human PD-L1/CD274 Protein …; assay: ELISA on coated hPD-L1-his; bound at pH7.4, then 2 h at pH5.5; remark: listed apart in the source
[13] = target: T6, Recombinant Mouse PD-L1/CD274 Protein (mPD-L1-his) (mouse, UniProt Q9EP73 19-238); assay: ELISA, 20 ug/ml antibody on coated mouse PD-L1 (his-tagged per text, mPD-L1-Fc per sheet title)
T6 construct: range 19-238; ACRO Biosystem PD1-M5220; also called mouse PD-L1-his
T6 sequence (Q9EP73 other isoform, or with tags, fused parts or gaps limits assumed): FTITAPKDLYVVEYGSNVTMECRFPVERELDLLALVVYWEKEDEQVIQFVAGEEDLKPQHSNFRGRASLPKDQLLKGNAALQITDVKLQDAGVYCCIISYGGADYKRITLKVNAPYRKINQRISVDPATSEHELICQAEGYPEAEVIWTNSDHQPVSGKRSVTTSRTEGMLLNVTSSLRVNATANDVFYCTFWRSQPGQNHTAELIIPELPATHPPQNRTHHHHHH
Summary of the method: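 Wells coated overnight at 4 °C with 1 μg/ml mouse PD-L1-his, blocked 2 h with BSA/goat serum buffer; purified hybridoma mouse antibodies at 20 μg/ml bound 1 h at RT. Detection by HRP goat anti-mouse Fc (60 min, RT), TMB, acid stop, absorbance at 450 nm.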

[14] = target: T5, Human PD-L1/CD274 with C-Fc Tag …; assay: blocking ELISA on coated hPD-L1-Fc; blocked ligand: biotinylated hPD-1-Fc-N297A
Protocol: High-binding clear polystyrene 96 well plates (Nunc) were coated with 100 μl/well of coating solution consisting of 0.5 μg/ml hPD-L1-Fc overnight at 4° C. Then washed once on an automatic plate washer using washing buffer PBS+0.1% Tween 20 (Sigma). 200 μl of blocking buffer (PBS+1% BSA+1% normal goat serum+0.05% Tween-20) was added to each well and incubated for 2 hours at room temperature. Then add serial diluted antibodies (from 10 μg/ml to 0.0006 μg/ml) with dilution buffer (PBS+1% BSA+1% normal goat serum+0.01% Tween-20) and incubate for 1 hour at RT. The plates were then washed 3 times using the method described above. […] After the plates were washed 3 times, 100 μl/well of a solution of HRP conjugated Neutravidin antibody (Pierce) diluted in dilution buffer was then added to each well of the plate. After that the ELISA plates were allowed to incubate for 60 min at RT then plates were washed 3 times with 250 μl/well washing buffer. Finally, 100 μl/well of TMB was added to each well and reaction was terminated using 0.64M H₂SO₄. The plates were read on a Thermo Multiscan FC at 450 nM (see FIG. 4A).

[15] = target: T3, wild type human PD-L1-Fc protein (SEQ …); assay: ELISA on hPD-L1-Fc captured from 293T supernatant, 0.5 ug/ml antibody

T1 sequence (Q9NZQ7 other isoform, or with tags, fused parts or gaps limits assumed): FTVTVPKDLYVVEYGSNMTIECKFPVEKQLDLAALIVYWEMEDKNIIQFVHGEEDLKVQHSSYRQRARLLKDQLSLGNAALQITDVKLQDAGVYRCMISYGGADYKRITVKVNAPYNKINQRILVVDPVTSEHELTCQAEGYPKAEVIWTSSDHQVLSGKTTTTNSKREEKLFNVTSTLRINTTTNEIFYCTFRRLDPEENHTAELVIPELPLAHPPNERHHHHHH

B1: 23F11-H4L4 (antibody, V domains shown)
VH: QVQLVQSGAEVKKPGASVKLSCKASGYIFTTYWMHWVKQRPGQGLEWIGMIQPNSGGTKYNEKFKKKATLTVDKSISTAYMELSRLTSDDTAVYYCARGAGTVDYFDYWGQGSTLTVSS
VL: DIVLTQSPASLAVSVGQRATITCRASESVDIYGNSFMHWYQQKPGQPPKLLIYRASNLESGIPARFSGSGSRTDFTLTINPVEANDTATYYCQQSTEDPYTFGGGTKLEIK
notes: Human IgG1 constant region with N297A; biotinylated in the alanine-scan ELISA; also called 23F11-H4L4-bio; humanized 23F11
[1]
  binding signal at pH5 as percent of the signal at pH7.4: < 50%
  binding signal at pH5.5 as percent of the signal at pH7.4: < 75%
[2]
  % of binding of Ab to E58A mutant vs. that to WT PD-L1: 9.2%
  Mean OD450: 0.116 OD450
  OD450 nM of sample-1: 0.129 OD450
  OD450 nM of sample-2: 0.103 OD450
[3]
  Mean OD450: 1.25 OD450
  OD450 nM of sample-1: 1.18 OD450
  OD450 nM of sample-2: 1.33 OD450
[4]
  EC50: 0.0305 µg/mL
[5]
  EC50 (read off the curve): ~0.01 µg/mL
[6]
  Kd: 65.4 nM
  koff: 0.0304 s⁻¹
  kon: 465000 M⁻¹ s⁻¹
[7]
  IC50 (read off the curve): ~0.03 µg/mL
[8]
  EC50 (read off the curve): ~0.007 µg/mL
[9]
  IC50 (read off the curve): ~0.03 µg/mL
[10]
  EC50 (read off the curve): ~0.001 µg/mL

B2: 23F11-H4L4 (produced in CHO cells) (antibody, V domains shown)
VH: QVQLVQSGAEVKKPGASVKLSCKASGYIFTTYWMHWVKQRPGQGLEWIGMIQPNSGGTKYNEKFKKKATLTVDKSISTAYMELSRLTSDDTAVYYCARGAGTVDYFDYWGQGSTLTVSS
VL: DIVLTQSPASLAVSVGQRATITCRASESVDIYGNSFMHWYQQKPGQPPKLLIYRASNLESGIPARFSGSGSRTDFTLTINPVEAQDTATYYCQQSTEDPYTFGGGTKLEIK
notes: also called 23F11-H4L4 (CHO cell derived); 23F11 H4L4 CHO
[11]
  EC50 (read off the curve): ~0.008 µg/mL
[12]
  EC50 (read off the curve): ~0.009 µg/mL
[9]
  IC50 (read off the curve): ~0.06 µg/mL

B3: 21F11 (antibody, V domains shown)
VH: QVQLQQPGAELVKPGASVKLSCKASGYTFTSNWMHWVKQRPGQGLEWIGMMHPNSGSINYNEKFKNKATLTADKSSSTAYMQLSSLTSEDSAVYYCARSYYGSSPYYFDYWGQGTTLTVSS
VL: DIQMTQTTSSLSASLGDRVTISCRASQDISNYLNWYQQKPDGTVKLLIYYTSRLHSGVPSRFSGSGSGTDFSLTISNLEEEDIATYFCQQGDTLPWTFGGGTKLEIK
notes: Mouse monoclonal from hybridoma; also called mouse monoclonal antibody 21F11
[13]
  binding result: no binding (tested: 20 ug/ml)
[14]
  IC50 (read off the curve): ~0.2 µg/mL
[15]
  binding result: binds

From patent US20210009693A1 (MABSPACE BIOSCIENCES SUZHOU, published 2021)
